Results as given in the RNAGym collection of RNA variant scans (doi:10.1093/molbev/msab373).

B1: Azoarcus group I ribozyme (parent)
chain: GUGCCUUGCGCCGGGAAACCACGCAAGGGAUGGUGUCAAAUUCGGCGAAACCUAAGCGCCCGCCCGGGCGUAUGGCAACGCCGAGCCAAGCUUCGGCGCCUGCGCCGAUGAAGGUGUAGAGACUAGACGGCACCCACCUAAGGCAAACGCUAUGGUGAAGGCAUAGUCCAGGGAGUGGCGAAAGUCACACAAACCGG

Variants of: B1
Experiment: reverse-splicing fitness (ratio to wild type); higher = more active; in vitro selection; Mg2+ level not given
Summary of the method: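 An in vitro group I ribozyme library with randomized positions was T7-transcribed and gel-purified. In triplicate, 10 pmol RNA in EPPS pH 7.5 was reacted with 50 pmoles of a 30-nt RNA substrate for 1 h at 37 °C across several added MgCl2 levels (1–48 mM), then stopped with EDTA. Products were reverse transcribed from a substrate-complementary primer, PCR-amplified and sequenced (HiSeq 4000). Fitness is a variant's read proportion after selection over that before, normalised to wild type.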
Variant C82A A111G A120C A145G C150U C169A has a reverse-splicing fitness of 0.012.
C82A A111G A120C A145G C150U C169U showed a reverse-splicing fitness of 0.0147.
Work on C82A A111G A120C A145G C150U C169G yielded a reverse-splicing fitness of 0.0101.
C82A A111G A120C A145C C150G C169G U176G showed a reverse-splicing fitness of 0.00568.
For C82A A111G A120C A145C C150G C169G U176A, the reverse-splicing fitness was 0.00979.
C82A A111G A120C A145C C150G C169G U176C gave a reverse-splicing fitness of 0.00812.
Variant C82A A111G A120C A145C has a reverse-splicing fitness of 0.0362.
Variant C82A A111G A120C A145G has a reverse-splicing fitness of 0.0444.
C82A A111G A120C A145U gave a reverse-splicing fitness of 0.0424.
In the case of C82A A111G A120C A145G C150G U176C, the reverse-splicing fitness is reported as 0.0121.
With C82A A111G A120C A145G C150G U176A the reverse-splicing fitness was 0.00873.
Work on C82A A111G A120C A145G C150G U176G yielded a reverse-splicing fitness of 0.00593.
C82A A111G A120C A145U C150G C169G U176A showed a reverse-splicing fitness of 0.00801.
C82A A111G A120C A145U C150G C169G U176C showed a reverse-splicing fitness of 0.00564.
C82A A111G A120C A145U C150G C169G U176G showed a reverse-splicing fitness of 0.00589.
C82A A111G A120C A145C C150G C169G gave a reverse-splicing fitness of 0.00705.
With C82A A111G A120C A145C C150G C169U the reverse-splicing fitness was 0.009.
C82A A111G A120C A145C C150G C169A gave a reverse-splicing fitness of 0.0102.
In the case of C82A A111G A120C A145C C150G C169A U176G, the reverse-splicing fitness is reported as 0.00545.
For C82A A111G A120C A145C C150G C169A U176C, the reverse-splicing fitness was 0.0108.
C82A A111G A120C A145C C150G C169A U176A showed a reverse-splicing fitness of 0.00906.
For C82A A111G A120C A145C C150G C169U U176A, the reverse-splicing fitness was 0.00566.
For C82A A111G A120C A145C C150G C169U U176G, the reverse-splicing fitness was 0.00527.
C82A A111G A120C A145C C150G C169U U176C gave a reverse-splicing fitness of 0.00986.
C82A A111G A120C A145G C150A C169U gave a reverse-splicing fitness of 0.00999.
C82A A111G A120C A145G C150A C169A showed a reverse-splicing fitness of 0.0119.
Variant C82A A111G A120C A145G C150A C169G has a reverse-splicing fitness of 0.00915.
In the case of C82A A111G A120C A145G C150A C169G U176C, the reverse-splicing fitness is reported as 0.0242.
Work on C82A A111G A120C A145G C150A C169G U176G yielded a reverse-splicing fitness of 0.00711.
With C82A A111G A120C A145G C150A C169G U176A the reverse-splicing fitness was 0.0211.
Variant C82A A111G A120C A145C C169G has a reverse-splicing fitness of 0.00965.
Variant C82A A111G A120C A145C C169U has a reverse-splicing fitness of 0.0116.
For C82A A111G A120C A145C C169A, the reverse-splicing fitness was 0.00673.
With C82A A111G A120C A145G C169A U176G the reverse-splicing fitness was 0.00562.
In the case of C82A A111G A120C A145G C169A U176A, the reverse-splicing fitness is reported as 0.0226.
In the case of C82A A111G A120C A145G C169A U176C, the reverse-splicing fitness is reported as 0.0269.
In the case of C82A A111G A120C A145C C150G U176G, the reverse-splicing fitness is reported as 0.00265.
C82A A111G A120C A145C C150G U176A gave a reverse-splicing fitness of 0.00522.
Work on C82A A111G A120C A145C C150G U176C yielded a reverse-splicing fitness of 0.00712.
Work on C82A A111C U176A yielded a reverse-splicing fitness of 0.0824.
For C82A A111C U176G, the reverse-splicing fitness was 0.0172.
With C82A A111C U176C the reverse-splicing fitness was 0.102.
C82A A111G A120C A145C C150A C169G U176G gave a reverse-splicing fitness of 0.00763.
For C82A A111G A120C A145C C150A C169G U176A, the reverse-splicing fitness was 0.0288.
Work on C82A A111G A120C A145C C150A C169G U176C yielded a reverse-splicing fitness of 0.025.
In the case of C82A A111G A120C A145C C150A C169A U176C, the reverse-splicing fitness is reported as 0.0105.
With C82A A111G A120C A145C C150A C169A U176G the reverse-splicing fitness was 0.00558.
C82A A111G A120C A145C C150A C169A U176A showed a reverse-splicing fitness of 0.0178.
For C82A A111G A120C A145U C150A C169A, the reverse-splicing fitness was 0.0111.
C82A A111G A120C A145U C150A C169U gave a reverse-splicing fitness of 0.00961.
C82A A111G A120C A145U C150A C169G gave a reverse-splicing fitness of 0.00948.
C82A A111G A120C A145G C150G C169U U176C gave a reverse-splicing fitness of 0.0117.
With C82A A111G A120C A145G C150G C169U U176G the reverse-splicing fitness was 0.00802.
C82A A111G A120C A145G C150G C169U U176A gave a reverse-splicing fitness of 0.0129.
With C82A A111G A120C A145G C150G C169A U176A the reverse-splicing fitness was 0.0145.
C82A A111G A120C A145G C150G C169A U176G showed a reverse-splicing fitness of 0.00827.
C82A A111G A120C A145G C150G C169A U176C gave a reverse-splicing fitness of 0.0137.
Work on C82A A111G A120C A145G C150A U176G yielded a reverse-splicing fitness of 0.0103.
Variant C82A A111G A120C A145G C150A U176A has a reverse-splicing fitness of 0.0133.
Work on C82A A111G A120C A145G C150A U176C yielded a reverse-splicing fitness of 0.0253.
Variant C82A A111G A120C A145G U176G has a reverse-splicing fitness of 0.00889.
In the case of C82A A111G A120C A145G U176A, the reverse-splicing fitness is reported as 0.0183.
C82A A111G A120C A145G U176C showed a reverse-splicing fitness of 0.0327.
With C82A A111G A120C A145U C150G C169U U176A the reverse-splicing fitness was 0.00666.
C82A A111G A120C A145U C150G C169U U176C showed a reverse-splicing fitness of 0.0102.
In the case of C82A A111G A120C A145C C150G, the reverse-splicing fitness is reported as 0.00968.
With C82A A111G A120C A145C C150A the reverse-splicing fitness was 0.00953.
C82A A111G A120C A145C C150U showed a reverse-splicing fitness of 0.0161.
C82A A111G A120C A145C C169A U176C gave a reverse-splicing fitness of 0.0109.
For C82A A111G A120C A145C C169A U176A, the reverse-splicing fitness was 0.0162.
C82A A111G A120C A145C C169A U176G gave a reverse-splicing fitness of 0.0053.
Work on C82A A111G A120C A145C C150A C169U U176A yielded a reverse-splicing fitness of 0.0138.
Work on C82A A111G A120C A145C C150A C169U U176G yielded a reverse-splicing fitness of 0.00607.
Variant C82A A111G A120C A145C C150A C169U U176C has a reverse-splicing fitness of 0.011.
C82A A111G A120C A145G C150G C169G U176C gave a reverse-splicing fitness of 0.0115.
With C82A A111G A120C A145G C150G C169G U176G the reverse-splicing fitness was 0.00644.
Work on C82A A111G A120C A145G C150G C169G U176A yielded a reverse-splicing fitness of 0.0127.
For C82A A111G, the reverse-splicing fitness was 0.435.
C82A A111G A120C showed a reverse-splicing fitness of 0.0449.
Work on C82A A111C C169G U176G yielded a reverse-splicing fitness of 0.00734.
Variant C82A A111G A120C A145G C150U C169U U176A has a reverse-splicing fitness of 0.0141.
With C82A A111G A120C A145G C150U C169U U176G the reverse-splicing fitness was 0.00671.
For C82A A111G A120C A145G C150U C169U U176C, the reverse-splicing fitness was 0.0148.
